Test results reported in patent US20130171217A1, “ENZYMATIC PERACID GENERATION FOR USE IN SKIN CARE PRODUCTS” (E I DU PONT DE NEMOURS AND COMPANY, priority 2010, published 2013).
Marks after values point to notes of the source that are not given here.

Key:
[1] = Single fiber tensile strength after one-step enzymatic application
Description: (§1) Hair samples were cut into pieces 4-inches in length. The denier number (liner mass density) of each hair fiber was measured by Textechno Vibromat Instrument (Textechno Herbert Stein GmbH & Co. KG; Germany). The hair fibers were tested according to ASTM D 3822-01 (“Tensile Properties of Single Textile Fibers”; ASTM International, West Conshohocken, Pa., 2001), on an Instron testing system (Instron Model 1122 Tester; Instron, Mass.) at about 70° F. (approximately 21° C.) and 65% relative humidity. The treated area of the hair sample was placed in the middle of the gauge and both ends were gripped on the test heads. Both fiber ends were attached on a piece of tape, respectively, for easy handling and gripping on the test heads. The test used 2-inch (5.1 cm) gauge length, […], and 1.2 inch/min (3 cm/min) pulling rate. The force-strain curve of the fiber was recorded during the test. The tenacity at maximum (gf/den) was calculated by dividing maximum force (gf) by denier number (den). Note that (gf/den)/11.33=Newtons/tex (N/tex).
(§2) The first method (referred to herein as the “one-step approach”) comprises combining different amounts of at least one CE-7 perhydrolase with triacetin (an example of a suitable ester substrate) and hydrogen peroxide to generate peracetic acid. Hair bundles were inserted into “one step approach” solutions for 15 min immediately after mixing the enzyme solution with triacetin solution (final concentration was about 100 mM) and H2O2 solution (final concentration was about 250 mM). The hair samples were rinsed with water and dried. The method was repeated for another 15 times (total application was 16 times). In one experiment, two perhydrolase enzymes were used, i.e., untargeted T. maritima variant C277S (“C277S”; “PAH”; SEQ ID NO: 293) and “C277S-HC263” (SEQ ID NO: 288). The concentration of peracetic acid in solution after 15 min was evaluated by HPLC.

[2] = One-step enzymatic PAA generation, HPLC peracetic acid assay; type: biochemical
Description: Determination of the peracetic acid (PAA) concentration in the reaction mixtures was performed according to the method described by Pinkernell et al., Anal. Chem. 1997, 69(17):3623-3627. Aliquots (0.040 mL) of the reaction mixture were removed at predetermined times and mixed with 0.960 mL of 5 mM phosphoric acid in water; adjustment of the pH of the diluted sample to less than pH 4 immediately terminated the reaction. The resulting solution was filtered using an ULTRAFREE® MC-filter unit (30,000 Normal Molecular Weight Limit (NMWL), Millipore cat #UFC3LKT 00) by centrifugation for 2 min at 12,000 rpm. An aliquot (0.100 mL) of the resulting filtrate was transferred to 1.5-mL screw cap HPLC vial (Agilent Technologies, Palo Alto, Calif.; #5182-0715) containing 0.300 mL of deionized water, then 0.100 mL of 20 mM MTS (methyl-p-tolyl-sulfide) in acetonitrile was added, the vials capped, and the contents briefly mixed prior to a 10 min incubation at ca. 25° C. in the absence of light. To each vial was then added 0.400 mL of acetonitrile and 0.100 mL of a solution of triphenylphosphine (TPP, 40 mM) in acetonitrile, the vials re-capped, and the resulting solution mixed and incubated at ca. 25° C. for 30 min in the absence of light. To each vial was then added 0.100 mL of 10 mM N,N-diethyl-m-toluamide (DEET; HPLC external standard) and the resulting solution analyzed by HPLC (Waters Alliance 2695, Waters Corporation; MA).
Supelco Discovery C8 column (10 cm×4.0-mm, 5 μm) (cat. #569422-U) w/precolumn Supelco Supelguard Discovery C8 (Sigma-Aldrich; cat #59590-U); 10 microliter injection volume; gradient method with CH3CN (Sigma-Aldrich; #270717) and deionized water at 1.0 mL/min and ambient temperature:
as §2

[3] = Single fiber tensile strength and bleaching start after two-step enzymatic application
Description: as §1
In a two-step application, the hair strands are first treated with perhydrolase solutions to allow the enzyme to bind hair. The hair strands are then dried or rinsed with buffer and dried. The rinse step is intended to remove excess unbound enzyme from the hair. The hair strands are soaked in triacetin and H2O2 solutions. The application is repeated for multiple times.
One experiment was carried out with C277S-HC263 and untargeted T. maritima variant C277S using the following protocol: • 1. Enzyme solutions comprising 0.5 mg/mL enzyme in 50 mM phosphate buffer (pH 8) were made with or without 10 wt % urea. • 2. Seven (7) hair strands were soaked in 0.2 mL of an enzyme solution for 10 min and then dried under N2 without prior rinsing. • 3. The hair strands were then soaked in 0.2 mL of a pH 8 solution containing 100-mM triacetin and 250-mM H2O2 for 15 min, dried, then rinsed with DI water and then dried again. • 4. Steps 2-3 were repeated up to 15 times.
Another experiment was carried out with C277S-HC263 (SEQ ID NO: 288), CPAH-HC263 (SEQ ID NO: 294), CPAH-HC1010 (SEQ ID NO: 295) and untargeted C277S using the following protocol: • 1. Enzyme solutions comprising 1.0 mg/mL enzyme in 50 mM phosphate buffer (pH 6) were prepared. For solutions containing two enzymes, the concentration of each enzyme was approximately 0.5 mg/mL. • 2. Seven (7) hair strands were soaked in 0.2 mL of an enzyme solution for 10 min, rinsed with 50 mM phosphate buffer (pH 6), and then dried under N2. • 3. The dried hair strands were then soaked into 0.2 mL of 50 mM phosphate buffer solution (pH 8) comprising 100 mM triacetin and 250 mM H2O2 for 15 min, dried, then rinsed with DI water and then dried again. • 4.

[4] = two-step with buffer rinse, 1.0 mg/mL enzyme pH 6, 100 mM triacetin, 250 mM H2O2, up to 13 repeats
[5] = two-step without rinse, 0.5 mg/mL enzyme pH 8, urea 0 wt %
[6] = two-step without rinse, 0.5 mg/mL enzyme pH 8, urea 0 wt %, 100 mM triacetin, 250 mM H2O2
[7] = two-step without rinse, 0.5 mg/mL enzyme pH 8, urea 10 wt %, 100 mM triacetin, 250 mM H2O2

| Molecule | Ten. @ Max ([1]; 0.05 mg/mL enzyme, urea 10 wt %, 15 min × 16) [gf/den] | Ten. @ Max ([1]; 0.25 mg/mL enzyme, urea 10 wt %, 15 min × 16, average of less than 3 strands) | Ten. @ Max ([1]; 0.5 mg/mL enzyme, urea 10 wt %, 15 min × 16) [gf/den] | PAA ([2]; 0.05 mg/mL enzyme, urea 10 wt %, after 15 min) [ppm] | PAA ([2]; 0.25 mg/mL enzyme, urea 10 wt %, after 15 min) [ppm] | PAA ([2]; 0.5 mg/mL enzyme, urea 10 wt %, after 15 min) [ppm] | Tenacity @ max [3, 4] [gf/den] | Bleaching Start [3, 5] [th] | Tenacity @ max [3, 6] [gf/den] | Bleaching Start ([3]; two-step without rinse, 0.5 mg/mL enzyme pH 8, urea 10 wt %) [th] | Tenacity @ max [3, 7] [gf/den] | Ten. @ Max ([1]; 0.05 mg/mL enzyme, urea 0 wt %, 15 min × 16) [gf/den] | Ten. @ Max ([1]; 0.25 mg/mL enzyme, urea 0 wt %, 15 min × 16, average of less than 3 strands) | Ten. @ Max ([1]; 0.5 mg/mL enzyme, urea 0 wt %, 15 min × 16) [gf/den] | PAA generated ([2]; 0.05 mg/mL enzyme) | PAA ([2]; 0.05 mg/mL enzyme, urea 0 wt %, after 15 min) [ppm] | PAA ([2]; 0.25 mg/mL enzyme, urea 0 wt %, after 15 min) [ppm] | PAA ([2]; 0.5 mg/mL enzyme, urea 0 wt %, ~100 mM triacetin, ~250 mM H2O2, after 15 min) [ppm] | perhydrolase activity lower than C277S ([2]; same weight basis, under testing condition) |
| --- | --- | --- | --- | --- | --- | --- | --- | --- | --- | --- | --- | --- | --- | --- | --- | --- | --- | --- | --- |
| C277S: non-targeted C277S variant of the Thermotoga maritima perhydrolase, un-targeted control (protein, listed as Thermotoga maritima) MAFFDLPLEELKKYRPERYEEKDFDEFWEETLAESEKFPLDPVFERMESHLKTVEAYDVTFSGYRGQRIKGWLLVPKLEEEKLPCVVQYIGYNGGRGFPHDWLFWPSMGYICFVMDTRGQGSGWLKGDTPDYPEGPVDPQYPGFMTRGILDPRTYYYRRVFTDAVRAVEAAASFPQVDQERIVIAGGSQGGGIALAVSALSKKAKALLCDVPFLCHFRRAVQLVDTHPYAEITNFLKTHRDKEEIVFRTLSYFDGVNFAARAKIPALFSVGLMDNISPPSTVFAAYNYYAGPKEIRIYPYNNHEGGGSFQAVEQVKFLKKLFEKG | 0.3 | 0.6^# gf/den | 0.6 | 6448 | 14053 | 13656 | 1.7 | 13 | 0.7 | 12 | 0.6 |  |  |  |  |  |  |  |  |
| C277S-HC263: C277S variant of Thermotoga maritima perhydrolase fused via a flexible linker to hair-binding domain HC263 (protein) MAFFDLPLEELKKYRPERYEEKDFDEFWEETLAESEKFPLDPVFERMESHLKTVEAYDVTFSGYRGQRIKGWLLVPKLEEEKLPCVVQYIGYNGGRGFPHDWLFWPSMGYICFVMDTRGQGSGWLKGDTPDYPEGPVDPQYPGFMTRGILDPRTYYYRRVFTDAVRAVEAAASFPQVDQERIVIAGGSQGGGIALAVSALSKKAKALLCDVPFLCHFRRAVQLVDTHPYAEITNFLKTHRDKEEIVFRTLSYFDGVNFAARAKIPALFSVGLMDNISPPSTVFAAYNYYAGPKEIRIYPYNNHEGGGSFQAVEQVKFLKKLFEKGGPGSGGAGSPGSAGGPGSPSAQSQLPDKHSGLHERAPQRYGPEPEPEPEPIPEPPKEAPVVIEKPKPKPKPKPKPPAHDHKNQKETHQRHAAGSGGGGSPHHHHHH |  |  |  |  |  |  | 1.7 | 15 | 1.2 |  | 1.7 | 1.0 | 0.4^# gf/den | 0.7 | about 0.2 wt % | 1983 | 3948 | 4132 | 2-3 times |
